The results in this text go back to patent US20240075161A1 (AUGUSTA UNIVERSITY RESEARCH INSTITUTE, published 2024).

Where no end group is shown, it is not given here. The star is where a group is joined. Biotin = O=C1N[C@H]2[C@H](CS[C@H]2CCCCC(=O)*)N1

The target of the experiment is T1, CD206 on CD206-positive M2 macrophages (mouse) (mouse, UniProt Q61830 20-1456).
T1 construct: whole, on cells; No purified CD206 was used; also called CD206 receptor; CD206+ RAW264.7 cells
T1 sequence (looked up): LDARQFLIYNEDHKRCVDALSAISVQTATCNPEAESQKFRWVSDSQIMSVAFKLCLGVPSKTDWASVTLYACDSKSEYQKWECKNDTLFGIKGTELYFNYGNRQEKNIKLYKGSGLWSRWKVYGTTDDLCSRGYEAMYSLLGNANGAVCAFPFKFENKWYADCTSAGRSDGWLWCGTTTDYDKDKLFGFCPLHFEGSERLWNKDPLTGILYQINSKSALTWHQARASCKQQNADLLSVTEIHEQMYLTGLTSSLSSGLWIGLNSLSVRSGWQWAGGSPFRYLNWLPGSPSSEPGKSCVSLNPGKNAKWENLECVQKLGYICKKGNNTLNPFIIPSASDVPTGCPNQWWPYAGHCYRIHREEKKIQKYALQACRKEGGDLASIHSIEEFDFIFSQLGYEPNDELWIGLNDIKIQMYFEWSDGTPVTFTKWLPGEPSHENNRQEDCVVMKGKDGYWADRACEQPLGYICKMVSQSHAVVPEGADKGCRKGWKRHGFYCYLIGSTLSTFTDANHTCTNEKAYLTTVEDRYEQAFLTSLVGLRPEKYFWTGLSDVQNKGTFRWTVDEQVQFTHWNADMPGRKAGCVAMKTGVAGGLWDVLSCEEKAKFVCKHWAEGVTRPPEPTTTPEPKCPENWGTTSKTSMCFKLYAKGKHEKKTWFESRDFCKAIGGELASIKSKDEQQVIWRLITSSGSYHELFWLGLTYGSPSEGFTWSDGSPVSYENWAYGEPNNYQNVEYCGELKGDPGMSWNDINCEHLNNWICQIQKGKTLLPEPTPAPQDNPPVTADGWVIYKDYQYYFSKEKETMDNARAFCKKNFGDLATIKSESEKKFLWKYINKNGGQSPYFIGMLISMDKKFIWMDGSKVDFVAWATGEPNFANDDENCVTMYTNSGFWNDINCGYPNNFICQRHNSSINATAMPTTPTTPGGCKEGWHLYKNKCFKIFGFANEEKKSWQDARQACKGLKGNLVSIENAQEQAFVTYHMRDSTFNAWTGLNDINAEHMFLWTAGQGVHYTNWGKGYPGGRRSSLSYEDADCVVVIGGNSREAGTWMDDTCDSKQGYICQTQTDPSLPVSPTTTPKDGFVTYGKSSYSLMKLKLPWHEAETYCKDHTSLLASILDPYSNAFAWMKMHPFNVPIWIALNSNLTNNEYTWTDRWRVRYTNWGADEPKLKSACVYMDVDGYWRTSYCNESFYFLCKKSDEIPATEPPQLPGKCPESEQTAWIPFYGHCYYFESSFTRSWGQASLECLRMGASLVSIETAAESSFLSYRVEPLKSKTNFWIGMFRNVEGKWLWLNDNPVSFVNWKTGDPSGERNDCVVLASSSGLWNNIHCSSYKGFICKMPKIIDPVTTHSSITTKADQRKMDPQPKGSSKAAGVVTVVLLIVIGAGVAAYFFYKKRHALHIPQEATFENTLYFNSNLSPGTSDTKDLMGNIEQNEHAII
The experiment can be described thus: immunofluorescence of tumor, spleen and lung sections of 4T1 tumor-bearing mice after i.v. injection.

B1: Biotinylated precision peptide (Biotin-CSPGAKVRC), rhodamine-labeled (peptide)
peptide: Biotin-CSPGAKVRC
modifications: cysteine pairing not given here; also: complex with rhodamine-tagged streptavidin
notes: Synthetic peptide (GeneScript); injected i.v. as a complex with rhodamine-streptavidin; also called Rhodamine red-labeled targeting peptide; rhodamine-labeled precision peptide
Consider B1, for which the binding result was “binds”.
